The record followed here is patent CN116472284A.

By pKd is commonly meant the negative decadic logarithm of the Kd, by convention in mol/L. High values mean a small Kd, low ones a large Kd. In general, koff refers to a measure of how fast the partners let go of each other. As a reminder, the pEC50 is −log10 of the EC50, conventionally taken in molar units.

The target of assay [1] is SARS-CoV-2 spike ectodomain, prefusion-stabilised trimer (刺突 S2P) (SARS-CoV-2). As to the kind of experiment: SPR, captured spike S2P. (Surface plasmon resonance follows binding to a sensor surface in real time, without labels.)
For assay [2] the target is unchanged. As to the kind of experiment: SPR, captured spike S2P, no measurable dissociation in ten minutes.
Assay [3] shares this target.
Assay [4] concerns the target SARS-CoV-2 spike on live SARS-CoV-2 virus (isolate France/IDF0372/2020) (SARS-CoV-2) (UniProt P0DTC2). Nature of the assay: cell-based or functional assay.
For assay [5], the target named is SARS-CoV-2 spike ectodomain, prefusion-stabilised trimer (刺突 S2P) (SARS-CoV-2). As to the kind of experiment: SPR, captured spike S2P, biphasic dissociation, fast phase kd1.
For assay [6] the target is unchanged. Nature of the assay: SPR, captured spike S2P, biphasic dissociation, slow phase kd2.

pEC50, pKd: −log10 of the molar value.

With “mNb6-tri (trivalent mNb6 with 20 amino acid linkers) (VHH)”, in assay [1], the pKd was more than 12.00 and the dissociation half-life t1/2 is > 8 天 (days). In addition, in assay [2], the koff is less than 1e-06 s⁻¹.
In assay [3], “mNb6 (affinity-matured Nb6, I27Y and P105Y) (VHH)” had a pEC50 of 10.25.
In the case of “Nb6-tri (trivalent Nb6 with two 20 amino acid linkers) (VHH)”, the mean IC50, plaque reduction neutralisation of live SARS-CoV-2 on VeroE6 cells in assay [4] was determined as 160 pM. The same substance displayed a fold gain in KD against monovalent Nb6 in assay [1] of more than 200000 fold. The koff is 0.029 s⁻¹ in assay [5] and less than 1e-06 s⁻¹ in assay [6].
